Source: patent publication US20250002610A1 (Genmab, published 2025)

T1: human DR4 (Death Receptor 4), cell surface expressed on human tumor cell lines (human, UniProt O00220 24-468)
T1 construct: also called TNFRSF10A; TRAIL-R1
T1 sequence: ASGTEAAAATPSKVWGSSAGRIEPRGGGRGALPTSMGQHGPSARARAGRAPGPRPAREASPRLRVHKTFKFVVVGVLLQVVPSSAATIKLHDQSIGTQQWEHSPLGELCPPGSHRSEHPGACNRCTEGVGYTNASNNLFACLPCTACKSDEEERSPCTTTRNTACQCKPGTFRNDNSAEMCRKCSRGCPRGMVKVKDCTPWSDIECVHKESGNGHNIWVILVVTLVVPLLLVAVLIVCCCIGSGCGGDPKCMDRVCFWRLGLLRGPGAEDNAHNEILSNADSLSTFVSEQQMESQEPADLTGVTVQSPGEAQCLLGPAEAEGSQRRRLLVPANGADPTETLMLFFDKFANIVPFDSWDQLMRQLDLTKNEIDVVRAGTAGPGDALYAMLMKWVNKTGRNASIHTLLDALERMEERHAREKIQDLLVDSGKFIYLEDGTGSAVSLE

T2: human FAPα (Fibroblast activation protein alpha), cell surface expressed (human, UniProt Q12884 1-760)
T2 construct: Endogenous on human lung fibroblasts and CAFs
T2 sequence: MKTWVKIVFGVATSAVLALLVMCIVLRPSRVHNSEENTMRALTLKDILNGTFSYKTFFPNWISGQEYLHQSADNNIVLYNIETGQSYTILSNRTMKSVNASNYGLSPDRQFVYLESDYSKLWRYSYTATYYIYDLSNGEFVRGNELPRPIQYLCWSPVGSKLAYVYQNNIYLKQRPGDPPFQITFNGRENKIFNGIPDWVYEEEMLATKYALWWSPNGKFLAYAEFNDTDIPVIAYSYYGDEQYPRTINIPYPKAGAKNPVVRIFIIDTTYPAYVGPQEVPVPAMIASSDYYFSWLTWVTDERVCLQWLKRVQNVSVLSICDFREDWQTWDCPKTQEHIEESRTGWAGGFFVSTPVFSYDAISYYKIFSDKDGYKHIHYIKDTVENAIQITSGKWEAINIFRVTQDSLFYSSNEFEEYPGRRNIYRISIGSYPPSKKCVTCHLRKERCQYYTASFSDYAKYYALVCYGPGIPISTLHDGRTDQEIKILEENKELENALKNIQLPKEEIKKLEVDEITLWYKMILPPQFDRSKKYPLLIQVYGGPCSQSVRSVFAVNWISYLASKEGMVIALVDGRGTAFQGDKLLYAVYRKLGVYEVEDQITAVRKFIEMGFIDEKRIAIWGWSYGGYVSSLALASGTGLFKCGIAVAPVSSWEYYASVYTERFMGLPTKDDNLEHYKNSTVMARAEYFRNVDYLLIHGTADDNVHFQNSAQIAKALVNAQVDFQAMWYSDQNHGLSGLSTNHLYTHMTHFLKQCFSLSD


Assays:
[1] = target: T1, human DR4 (Death Receptor 4), cell …; test: flow cytometry, PANC-1 cells, average ± SEM
[2] = target: T1, human DR4 (Death Receptor 4), cell …; test: flow cytometry, MDA-MB-231 cells, n = 2
[3] = target: T1, human DR4 (Death Receptor 4), cell …; test: flow cytometry, A549 cells, n = 2
[4] = target: T1, human DR4 (Death Receptor 4), cell …; test: flow cytometry, HCT-15 cells, n = 1
[5] = target: T2, human FAPα (Fibroblast activation …); test: flow cytometry, human lung fibroblasts, n = 3
Experimental: (§1) Binding of bispecific or monoclonal antibodies carrying the anti-FAPα arm derived from IgG1-FAPα-FERL (BisG1-FAPα-FERL/DR4-FERR, BisG1-FAPα-FERL/b12-FERR, and IgG1-FAPα-FERL) to cell surface expressed human FAPα was analyzed by flow cytometry using human lung fibroblasts and CAFs, which endogenously express FAPα. BisG1-b12-FERL/b12-FERR was used as negative control.
(§2) Human lung fibroblasts and CAFs (50,000 cells/well) were seeded in 96-Well round bottom plates (Greiner Bio-one, Cat #650101). Antibody dilutions were prepared using fluorescence-activated cell sorting (FACS) buffer, consisting of phosphate buffer saline (PBS, Lonza, Cat #BE17-517Q)+1% Bovine Serum Albumin (BSA, Roche, Cat #10735086001)+0.02% Sodium Azide (Bio-World, Cat #41920044-3). Plates were centrifuged, supernatant was removed, cells were resuspended in 50 μL of human Fc Block (BD, Cat #564220, diluted 1:100 in FACS buffer) and 50 μL of viability stain TO-PRO-3 Iodide (Thermo Fisher, Cat #T3605, diluted 1: 25,000 in FACS buffer), and incubated for 15 min at 4° C. Plates were washed three times with FACS buffer. Plates were centrifuged, supernatant was removed, cells were resuspended in 50 μL of antibody dilutions (concentration range 90-0.0005 μg/mL, three-fold dilution steps using FACS buffer) of BisG1-FAPα-FERL/DR4-FERR, BisG1-FAPα-FERL/b12-FERR, BisG1-b12-FERL/b12-FERR (top six concentrations only for CAFs culture) or IgG1-FAPα-FERL (top four concentrations only for CAFs culture) and incubated for 30 min at 4° C. Cells were washed three times with FACS buffer and resuspended in 50 μL of Fluorescein isothiocyanate (FITC)-labeled polyclonal antibody goat anti-mouse IgG1 (Jackson Immuno Research, Cat #109-096-097, diluted 1:100 in FACS buffer). […] Antibody binding to viable cells (TO-PRO-3 negative) was analyzed by flow cytometry on a FACSCelesta™ (BD biosciences) and data were processed using FlowJo_v10.8.1 (FlowJo LLC). Geomean fluorescence intensity, gMFI, was determined and visualized using GraphPad Prism.

[6] = target: T1, human DR4 (Death Receptor 4), cell …; test: flow cytometry, A549 cells, n = 1
[7] = target: T2, human FAPα (Fibroblast activation …); test: flow cytometry, human lung fibroblasts, n = 1
Experimental: as §1, §2

[8] = target: T1, human DR4 (Death Receptor 4), cell …; test: flow cytometry, DLD-1 cells, n = 2
[9] = target: T2, human FAPα (Fibroblast activation …); test: flow cytometry, human lung fibroblasts, average ± SEM
Experimental: as §1, §2

Binder | EC50 [1] [µg/mL] | EC50 [2] [µg/mL] | EC50 [3] [µg/mL] | EC50 [4] [µg/mL] | EC50 [5] [µg/mL] | EC50 [6] [µg/mL] | EC50 [7] [µg/mL] | EC50 [8] [µg/mL] | EC50 [9] [µg/mL]
BisG1-FAPα-FERL/DR4-FERR (bispecific antibody, human IgG1, kappa, lambda, Human IgG1 bispecific made by controlled Fab-arm exchange of IgG1-FAPα-FERL and IgG1-DR4-FERR; monovalent for FAPα and for DR4; also called GEN1057) heavy 1: EVQLLESGGGLVQPGGSPRLSCEASGFTFSSYALSWVRQAPGKGLEWVSAISGSGGGRYYADSVKGRFTISRDNSKNTLFLQMNSLRAEDTAVYYCAKEGYSSSGTYWDHWGQGTLVTVSSASTKGPSVFPLAPSSKSTSGGTAALGCLVKDYFPEPVTVSWNSGALTSGVHTFPAVLQSSGLYSLSSVVTVPSSSLGTQTYICNVNHKPSNTKVDKRVEPKSCDKTHTCPPCPAPEFERGPSVFLFPPKPKDTLMISRTPEVTCVVVDVSHEDPEVKFNWYVDGVEVHNAKTKPREEQYNSTYRVVSVLTVLHQDWLNGKEYKCKVSNKALPAPIEKTISKAKGQPREPQVYTLPPSREEMTKNQVSLTCLVKGFYPSDIAVEWESNGQPENNYKTTPPVLDSDGSFLLYSKLTVDKSRWQQGNVFSCSVMHEALHNHYTQKSLSLSPG light 1: AIQMTQSPSSVSASVGDRVTITCRASQGVSSWLAWYQQKPGRAPKLLIYVASTLQSGVPSRFSGSGSGTDFTLTINSLQPEDFATYYCQQANSFPPTFGQGTRLEMKRTVAAPSVFIFPPSDEQLKSGTASVVCLLNNFYPREAKVQWKVDNALQSGNSQESVTEQDSKDSTYSLSSTLTLSKADYEKHKVYACEVTHQGLSSPVTKSFNRGEC heavy 2: QVQLQESGPGLVKPSGTLSLTCAVSGGSISSYSWWSWIRQPPGKGLEWIGELYHSGSTNYNPSLKSRVTISVDKSKNQFSLKLRSVTAADTAVYYCVRGVATIDYWGQGTLVTVSSASTKGPSVFPLAPSSKSTSGGTAALGCLVKDYFPEPVTVSWNSGALTSGVHTFPAVLQSSGLYSLSSVVTVPSSSLGTQTYICNVNHKPSNTKVDKRVEPKSCDKTHTCPPCPAPEFERGPSVFLFPPKPKDTLMISRTPEVTCVVVDVSHEDPEVKFNWYVDGVEVHNAKTKPREEQYNSTYRVVSVLTVLHQDWLNGKEYKCKVSNKALPAPIEKTISKAKGQPREPQVYTLPPSREEMTKNQVSLTCLVKGFYPSDIAVEWESNGQPENNYKTTPPVLDSDGSFFLYSRLTVDKSRWQQGNVFSCSVMHEALHNHYTQKSLSLSPG light 2: QSALTQPPSASGSPGQSVTISCTGTSSDVGGYNFVSWYQQDPGKAPKLLIYEVTKRPSGVPDRFSGSKSGNTASLTVSGLQAEDEADYYCSSYAGSNNVMFGGGTKLTVLGQPKAAPSVTLFPPSSEELQANKATLVCLISDFYPGAVTVAWKADSSPVKAGVETTTPSKQSNNKYAASSYLSLTPEQWKSHRSYSCQVTHEGSTVEKTVAPTECS | 1.7 | 1.24 | 0.93 | 0.59 | 0.059 | 0.86 | 0.046 | 0.73 | 0.051
BisG1-b12-FERL/DR4-FERR (bispecific antibody, human IgG1, kappa, lambda, Fab-arm exchange of IgG1-b12-FERL and IgG1-DR4-FERR; also called bsIgG1-ctrl-FERLxDR4-FERR) heavy 1: QVQLVQSGAEVKKPGASVKVSCQASGYRFSNFVIHWVRQAPGQRFEWMGWINPYNGNKEFSAKFQDRVTFTADTSANTAYMELRSLRSADTAVYYCARVGPYSWDDSPQDNYYMDVWGKGTTVIVSSASTKGPSVFPLAPSSKSTSGGTAALGCLVKDYFPEPVTVSWNSGALTSGVHTFPAVLQSSGLYSLSSVVTVPSSSLGTQTYICNVNHKPSNTKVDKRVEPKSCDKTHTCPPCPAPEFERGPSVFLFPPKPKDTLMISRTPEVTCVVVDVSHEDPEVKFNWYVDGVEVHNAKTKPREEQYNSTYRVVSVLTVLHQDWLNGKEYKCKVSNKALPAPIEKTISKAKGQPREPQVYTLPPSREEMTKNQVSLTCLVKGFYPSDIAVEWESNGQPENNYKTTPPVLDSDGSFLLYSKLTVDKSRWQQGNVFSCSVMHEALHNHYTQKSLSLSPG light 1: EIVLTQSPGTLSLSPGERATFSCRSSHSIRSRRVAWYQHKPGQAPRLVIHGVSNRASGISDRFSGSGSGTDFTLTITRVEPEDFALYYCQVYGASSYTFGQGTKLERKRTVAAPSVFIFPPSDEQLKSGTASVVCLLNNFYPREAKVQWKVDNALQSGNSQESVTEQDSKDSTYSLSSTLTLSKADYEKHKVYACEVTHQGLSSPVTKSFNRGEC heavy 2: QVQLQESGPGLVKPSGTLSLTCAVSGGSISSYSWWSWIRQPPGKGLEWIGELYHSGSTNYNPSLKSRVTISVDKSKNQFSLKLRSVTAADTAVYYCVRGVATIDYWGQGTLVTVSSASTKGPSVFPLAPSSKSTSGGTAALGCLVKDYFPEPVTVSWNSGALTSGVHTFPAVLQSSGLYSLSSVVTVPSSSLGTQTYICNVNHKPSNTKVDKRVEPKSCDKTHTCPPCPAPEFERGPSVFLFPPKPKDTLMISRTPEVTCVVVDVSHEDPEVKFNWYVDGVEVHNAKTKPREEQYNSTYRVVSVLTVLHQDWLNGKEYKCKVSNKALPAPIEKTISKAKGQPREPQVYTLPPSREEMTKNQVSLTCLVKGFYPSDIAVEWESNGQPENNYKTTPPVLDSDGSFFLYSRLTVDKSRWQQGNVFSCSVMHEALHNHYTQKSLSLSPG light 2: QSALTQPPSASGSPGQSVTISCTGTSSDVGGYNFVSWYQQDPGKAPKLLIYEVTKRPSGVPDRFSGSKSGNTASLTVSGLQAEDEADYYCSSYAGSNNVMFGGGTKLTVLGQPKAAPSVTLFPPSSEELQANKATLVCLISDFYPGAVTVAWKADSSPVKAGVETTTPSKQSNNKYAASSYLSLTPEQWKSHRSYSCQVTHEGSTVEKTVAPTECS | 1.63 | 1 | 0.68 | 0.59 | – | 0.89 | – | 0.68 | –
